Literature values as cited in patent publication US20260009081A1, “CLONAL HEMATOPOIESIS AND CYTOKINE TARGETS” (TRUSTEES OF BOSTON UNIVERSITY, priority 2018, published 2026).

Target: T1, IL-1β (Homo sapiens, UniProt P01584)
T1 construct: endogenous in cells; host or cells: CANTOS trial patients (endogenous cytokine)

In the case of “canakinumab: IL-1β neutralizing antibody; interleukin 1 beta monoclonal antibody”, the “side effect of therapy” value (patients) is given as “infection side effect” and the “major adverse cardiovascular events” value (patients with stable coronary artery disease and elevated C-reactive protein) is given as “can reduce major adverse cardiovascular events”.
